T1: PUF4 RNA-binding domain (Saccharomyces cerevisiae, UniProt P25339 537-888)
T1 sequence: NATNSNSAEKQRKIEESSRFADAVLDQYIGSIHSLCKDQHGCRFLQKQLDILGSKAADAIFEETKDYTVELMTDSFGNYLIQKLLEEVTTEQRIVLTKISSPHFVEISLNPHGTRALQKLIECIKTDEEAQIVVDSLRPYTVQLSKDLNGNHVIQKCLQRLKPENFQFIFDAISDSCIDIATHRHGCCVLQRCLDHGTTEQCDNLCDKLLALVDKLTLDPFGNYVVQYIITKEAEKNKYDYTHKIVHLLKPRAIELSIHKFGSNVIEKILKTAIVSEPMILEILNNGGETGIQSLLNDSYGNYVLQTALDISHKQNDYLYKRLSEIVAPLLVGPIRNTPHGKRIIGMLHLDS


Target: T1, PUF4 RNA-binding domain
Experiment: Mg; RNA-MaP; 20 mM Na-HEPES pH 7.4, 30 mM KOAc, 0.75 mM MgCl2, 0.1% Tween-20, 5% glycerol, 0.1 mg/mL BSA, 2 mM DTT; 25 C; 0.0125-409.6 nM protein
Conditions: tags: N-His6-TEV cleaved; C-SNAP kept, Cy3B-labelled; label: tethered on chip by stalled RNA polymerase

Row | Binder | Kd [nM]
1 | ACAAACUGUAUUACUUUUAACAAAC (ssRNA) [Ie_S3_P5E.1_K5.1_C5.1_H5.1_A5.1_[+7CTT]_F5.1_T5.1] | 115
2 | ACAAACUGUAUUAUUCCUCUAACAAAC (ssRNA) [Ie_S3_P5E.1_K5.1_C5.1_H5.1_A5.1_F5.1_[+9CCTCT]_T5.1] | 20.7
3 | ACAAACUGUCCCUUAUUAUUAACAAAC (ssRNA) [Ie_S3_P5E.1_K5.1_C5.1_H5.1_[+3CCCTT]_A5.1_F5.1_T5.1] | 698
4 | Ie_S4_P3E.2_K3.1_C3.2_[+-2T]_H3.1_A3.1_F3.1_T3.2 (ssRNA) RNA: UUUGACAACUGAUCGUUCUUUCUCUUUGUAUAUAUAUUCUUUCUCGAUCAGUUGUCUUU | 0.987
5 | Ie_S4_P3E.2_K3.1_C3.2_[+-1C]_H3.1_A3.1_F3.1_T3.2 (ssRNA) RNA: UUUGACAACUGAUCGUUCUUUCUCUCUGUAUAUAUAUUCUUUCUCGAUCAGUUGUCUUU | 1.07
6 | ACAAACUGUAUUAUCUCUCUAACAAAC (ssRNA) [Ie_S3_P5E.1_K5.1_C5.1_H5.1_A5.1_F5.1_[+8CTCTC]_T5.1] | 29.1
7 | ACAAACUGUAUUAUUCUCAACAAAC (ssRNA) [Ie_S3_P5E.1_K5.1_C5.1_H5.1_A5.1_F5.1_[+9CTC]_T5.1] | 23
8 | ACAAACUGUAUUACCCUUAACAAAC (ssRNA) [Ie_S3_P5E.1_K5.1_C5.1_H5.1_A5.1_[+7CCC]_F5.1_T5.1] | 510
9 | ACAAACUGUACCCUUUUAUUAACAAAC (ssRNA) [Ie_S3_P5E.1_K5.1_C5.1_H5.1_[+4CCCTT]_A5.1_F5.1_T5.1] | 30.4
10 | ACAAACUGUAUUACCUUUAACAAAC (ssRNA) [Ie_S3_P5E.1_K5.1_C5.1_H5.1_A5.1_[+7CCT]_F5.1_T5.1] | 221
11 | ACAAACUGUAUUAUUCCCAACAAAC (ssRNA) [Ie_S3_P5E.1_K5.1_C5.1_H5.1_A5.1_F5.1_[+9CCC]_T5.1] | 18.1
12 | ACAAACUGUAUUAUUCCUAACAAAC (ssRNA) [Ie_S3_P5E.1_K5.1_C5.1_H5.1_A5.1_F5.1_[+9CCT]_T5.1] | 19.9
13 | ACAAACUGUACCUCUUUAUUAACAAAC (ssRNA) [Ie_S3_P5E.1_K5.1_C5.1_H5.1_[+4CCTCT]_A5.1_F5.1_T5.1] | 52.5
14 | ACAAACUGUAUCUCUCUAUUAACAAAC (ssRNA) [Ie_S3_P5E.1_K5.1_C5.1_H5.1_A5.1_[+5CTCTC]_F5.1_T5.1] | 30.4
15 | Ie_S4_P3E.2_K3.1_C3.2_[+-2TTCC]_H3.1_A3.1_F3.1_T3.2 (ssRNA) RNA: UUUGACAACUGAUCGUUCUUUCUCUUCCUUGUAUAUAUAUUCUUUCUCGAUCAGUUGUCUUU | 1.01
16 | Ie_S4_P3E.2_K3.1_C3.2_H3.1_[+1CCTC]_A3.1_F3.1_T3.2 (ssRNA) RNA: UUUGACAACUGAUCGUUCUUUCUCUUCCUCGUAUAUAUAUUCUUUCUCGAUCAGUUGUCUUU | 64
17 | Ie_S4_P3E.2_K3.1_C3.2_[+-1CCCT]_H3.1_A3.1_F3.1_T3.2 (ssRNA) RNA: UUUGACAACUGAUCGUUCUUUCUCUCCCUUGUAUAUAUAUUCUUUCUCGAUCAGUUGUCUUU | 0.775
18 | Ie_S4_P3E.2_K3.1_C3.2_[+-1CCTC]_H3.1_A3.1_F3.1_T3.2 (ssRNA) RNA: UUUGACAACUGAUCGUUCUUUCUCUCCUCUGUAUAUAUAUUCUUUCUCGAUCAGUUGUCUUU | 1.06
19 | ACAAACUGUACCUCUUAUUAACAAAC (ssRNA) [Ie_S3_P5E.1_K5.1_C5.1_H5.1_[+4CCTC]_A5.1_F5.1_T5.1] | 27.2
20 | ACAAACUGUACUCUUAUUAACAAAC (ssRNA) [Ie_S3_P5E.1_K5.1_C5.1_H5.1_[+4CTC]_A5.1_F5.1_T5.1] | 7.73
21 | Ie_S4_P3E.2_K3.1_C3.2_[+-2CCC]_H3.1_A3.1_F3.1_T3.2 (ssRNA) RNA: UUUGACAACUGAUCGUUCUUUCUCCCCUUGUAUAUAUAUUCUUUCUCGAUCAGUUGUCUUU | 0.858
22 | Ie_S4_P3E.2_K3.1_C3.2_[+-1CTT]_H3.1_A3.1_F3.1_T3.2 (ssRNA) RNA: UUUGACAACUGAUCGUUCUUUCUCUCUUUGUAUAUAUAUUCUUUCUCGAUCAGUUGUCUUU | 1.24
23 | Ie_S4_P3E.2_K3.1_C3.2_H3.1_[+1CCT]_A3.1_F3.1_T3.2 (ssRNA) RNA: UUUGACAACUGAUCGUUCUUUCUCUUCCUGUAUAUAUAUUCUUUCUCGAUCAGUUGUCUUU | 1.07
24 | Ie_S4_P3E.2_K3.1_C3.2_H3.1_[+1TCC]_A3.1_F3.1_T3.2 (ssRNA) RNA: UUUGACAACUGAUCGUUCUUUCUCUUUCCGUAUAUAUAUUCUUUCUCGAUCAGUUGUCUUU | 25.7
25 | Ie_S4_P3E.2_K3.1_C3.2_[+-1CCC]_H3.1_A3.1_F3.1_T3.2 (ssRNA) RNA: UUUGACAACUGAUCGUUCUUUCUCUCCCUGUAUAUAUAUUCUUUCUCGAUCAGUUGUCUUU | 0.986
26 | Ie_S4_P3E.2_K3.1_C3.2_H3.1_[+1CTT]_A3.1_F3.1_T3.2 (ssRNA) RNA: UUUGACAACUGAUCGUUCUUUCUCUUCUUGUAUAUAUAUUCUUUCUCGAUCAGUUGUCUUU | 0.982

Row | Binder | Kd [nM]
27 | Ie_S4_P3E.2_K3.1_C3.2_[+-1CCT]_H3.1_A3.1_F3.1_T3.2 (ssRNA) RNA: UUUGACAACUGAUCGUUCUUUCUCUCCUUGUAUAUAUAUUCUUUCUCGAUCAGUUGUCUUU | 0.625
28 | Ie_S4_P3E.2_K3.1_C3.2_[+-1TTT]_H3.1_A3.1_F3.1_T3.2 (ssRNA) RNA: UUUGACAACUGAUCGUUCUUUCUCUUUUUGUAUAUAUAUUCUUUCUCGAUCAGUUGUCUUU | 1.03
29 | Ie_S4_P3E.2_K3.1_C3.2_[+-2CCCTT]_H3.1_A3.1_F3.1_T3.2 (ssRNA) RNA: UUUGACAACUGAUCGUUCUUUCUCCCCUUUUGUAUAUAUAUUCUUUCUCGAUCAGUUGUCUUU | 0.884
30 | Ie_S4_P3E.2_K3.1_C3.2_[+-1CTCTC]_H3.1_A3.1_F3.1_T3.2 (ssRNA) RNA: UUUGACAACUGAUCGUUCUUUCUCUCUCUCUGUAUAUAUAUUCUUUCUCGAUCAGUUGUCUUU | 0.676
31 | ACAAACUGUCUCUAUUAUUAACAAAC (ssRNA) [Ie_S3_P5E.1_K5.1_C5.1_H5.1_[+3CTCT]_A5.1_F5.1_T5.1] | 366
32 | ACAAACUGUAUUAUUUUCAACAAAC (ssRNA) [Ie_S3_P5E.1_K5.1_C5.1_H5.1_A5.1_F5.1_[+9TTC]_T5.1] | 19.8
33 | ACAAACUGUAUUCCCAUUAACAAAC (ssRNA) [Ie_S3_P5E.1_K5.1_C5.1_H5.1_A5.1_[+6CCC]_F5.1_T5.1] | 203
34 | ACAAACUGUAUUUCUCUAUUAACAAAC (ssRNA) [Ie_S3_P5E.1_K5.1_C5.1_H5.1_A5.1_[+6TCTCT]_F5.1_T5.1] | 38.4
35 | ACAAACUGUAUUAUCCCUAACAAAC (ssRNA) [Ie_S3_P5E.1_K5.1_C5.1_H5.1_A5.1_F5.1_[+8CCC]_T5.1] | 37.5
36 | ACAAACUGUAUCCCUUUAUUAACAAAC (ssRNA) [Ie_S3_P5E.1_K5.1_C5.1_H5.1_A5.1_[+5CCCTT]_F5.1_T5.1] | 92.6
37 | ACAAACUGUAUUACUCUCUUAACAAAC (ssRNA) [Ie_S3_P5E.1_K5.1_C5.1_H5.1_A5.1_[+7CTCTC]_F5.1_T5.1] | 128
38 | ACAAACUGUAUUAUUUCUAACAAAC (ssRNA) [Ie_S3_P5E.1_K5.1_C5.1_H5.1_A5.1_F5.1_[+8TTC]_T5.1] | 19.1
39 | ACAAACUGUAUUAUUAUCCACAAAC (ssRNA) [Ie_S3_P5E.1_K5.1_C5.1_H5.1_A5.1_F5.1_[+10TCC]_T5.1] | 5.94
40 | Ie_S4_P3E.2_K3.1_C3.2_[+-1CT]_H3.1_A3.1_F3.1_T3.2 (ssRNA) RNA: UUUGACAACUGAUCGUUCUUUCUCUCUUGUAUAUAUAUUCUUUCUCGAUCAGUUGUCUUU | 0.942
41 | Ie_S4_P3E.2_K3.1_C3.2_[+-1TC]_H3.1_A3.1_F3.1_T3.2 (ssRNA) RNA: UUUGACAACUGAUCGUUCUUUCUCUUCUGUAUAUAUAUUCUUUCUCGAUCAGUUGUCUUU | 0.769
42 | Ie_S4_P3E.2_K3.1_C3.2_H3.1_[+1TC]_A3.1_F3.1_T3.2 (ssRNA) RNA: UUUGACAACUGAUCGUUCUUUCUCUUUCGUAUAUAUAUUCUUUCUCGAUCAGUUGUCUUU | 50.6
43 | Ie_S4_P3E.2_K3.1_C3.2_[+-1TT]_H3.1_A3.1_F3.1_T3.2 (ssRNA) RNA: UUUGACAACUGAUCGUUCUUUCUCUUUUGUAUAUAUAUUCUUUCUCGAUCAGUUGUCUUU | 1.2
44 | Ib_S2_P3E.1_K3.1_C3.1_H3.1_[T1A]_A3.1_[T5C]_F3.1_T3.1 (ssRNA) RNA: UUUGAUUAAUAUGAUAUCGUUCUUUCUAGUACAUAUUCUUUCUCGAUAUCAUAUUAAUCUUU | > 2300
45 | Ib_S2_P3E.1_K3.1_C3.1_H3.1_[T1G]_A3.1_[A6T]_F3.1_T3.1 (ssRNA) RNA: UUUGAUUAAUAUGAUAUCGUUCUUUCUGGUAUUUAUUCUUUCUCGAUAUCAUAUUAAUCUUU | > 2300
46 | Ib_S2_P3E.1_K3.1_C3.1_H3.1_[T1A]_A3.1_[A6G]_F3.1_T3.1 (ssRNA) RNA: UUUGAUUAAUAUGAUAUCGUUCUUUCUAGUAUGUAUUCUUUCUCGAUAUCAUAUUAAUCUUU | 257
47 | Ib_S2_P3E.1_K3.1_C3.1_H3.1_[T1G]_A3.1_[A6G]_F3.1_T3.1 (ssRNA) RNA: UUUGAUUAAUAUGAUAUCGUUCUUUCUGGUAUGUAUUCUUUCUCGAUAUCAUAUUAAUCUUU | 277
48 | Ib_S2_P3E.1_K3.1_C3.1_H3.1_[T1C]_A3.1_[A6G]_F3.1_T3.1 (ssRNA) RNA: UUUGAUUAAUAUGAUAUCGUUCUUUCUCGUAUGUAUUCUUUCUCGAUAUCAUAUUAAUCUUU | 75.7
49 | Ic_S2_P3E.1_K3.1_C3.1_H3.1_A3.1_[T5A]_F3.1_T3.1 (ssRNA) RNA: UUUGAUUAAUAUGAUAUCGUUCUUUCUUGUAAAUAUUCUUUCUCGAUAUCAUAUUAAUCUUU | 14.9
50 | ACAAACUGUAUUAUUUCUCAACAAAC (ssRNA) [Ie_S3_P5E.1_K5.1_C5.1_H5.1_A5.1_F5.1_[+9TCTC]_T5.1] | 19.4
51 | ACAAACUGUAUUUCUAUUAACAAAC (ssRNA) [Ie_S3_P5E.1_K5.1_C5.1_H5.1_A5.1_[+6TCT]_F5.1_T5.1] | 7.3
52 | ACAAACUGUAUUAUUUCCUAACAAAC (ssRNA) [Ie_S3_P5E.1_K5.1_C5.1_H5.1_A5.1_F5.1_[+8TTCC]_T5.1] | 21.6
